Tests used:
[1] = molecular target: IgG-SpyTag; assay: electrophoresis on a bioanalyzer after covalent ligation; time course at 1:1 molar ratio; IgG-SpyTag 10 µM; ∆N-SpyCatcher-DFO kept at RT or heated for 1 h beforehand; reaction stopped by 10-fold dilution and storage at −80 °C; read-out is the share of heavy chain converted
[2] = molecular target: nimotuzumab-SpyTag (human (hG1 in the plasmid's name)); assay: electrophoresis on a bioanalyzer after covalent ligation; nimotuzumab-SpyTag (10 µM) ligated with ∆N-SpyCatcher-DFO (20 µM), 1:1 SpyTag:SpyCatcher; molecular weight of the whole conjugate
[3] = molecular target: control-IgG-SpyTag (human (hG1 in the plasmid's name)); assay: electrophoresis on a bioanalyzer after covalent ligation; ∆N-SpyCatcher-DFO reacted with IgG-SpyTag at molar ratios 0:1, 1:4, 1:2, 1:1 and 2:1; 1 h, PBS, room temperature; products analysed under reducing conditions; read-out is the share of heavy chain shifted from ~64 kDa to ~81 kDa
[4] = molecular target: nimotuzumab-SpyTag (human (hG1 in the plasmid's name)); assay: as above

Chain of nimotuzumab-SpyTag (human (hG1 in the plasmid's name)) (heavy, as listed by the source, chain 1 of 2): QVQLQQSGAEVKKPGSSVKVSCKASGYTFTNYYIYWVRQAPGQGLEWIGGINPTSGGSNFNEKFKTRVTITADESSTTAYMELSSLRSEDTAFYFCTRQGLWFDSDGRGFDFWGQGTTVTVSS
Chain of nimotuzumab-SpyTag (human (hG1 in the plasmid's name)) (light, as listed by the source, chain 2 of 2): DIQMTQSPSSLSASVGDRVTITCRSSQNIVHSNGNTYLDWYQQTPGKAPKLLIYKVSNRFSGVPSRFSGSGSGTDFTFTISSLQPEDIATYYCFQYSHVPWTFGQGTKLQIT

∆N-SpyCatcher-DFO (designed binder)
percent of heavy chain converted (1 min) [1]: 35%
percent of heavy chain converted (15 min) [1]: 94%
percent of heavy chain converted (stopped reaction) [1]: 13%
stoichiometry N [2]: 2
percent of heavy chain conjugated (SpyCatcher:SpyTag 1:1) [3]: 99%
percent of heavy chain conjugated (SpyCatcher:SpyTag 1:2) [3]: 50%
percent of heavy chain conjugated (SpyCatcher:SpyTag 1:4) [3]: 25%
percent of heavy chain conjugated (SpyCatcher:SpyTag 1:1) [4]: 99%
percent of heavy chain conjugated (SpyCatcher:SpyTag 1:2) [4]: 50%
percent of heavy chain conjugated (SpyCatcher:SpyTag 1:4) [4]: 25%

From paper PMC7699480
